In patent publication US20250099622A1, “COMPOSITIONS AND METHODS FOR EXPRESSING THERAPEUTICS” (priority 2022, published 2025):

Molecular target: T1, NPR-B receptor positive cell line, NIH/3T3 (Mus musculus, UniProt Q6VVW5)
T1 construct: natrieuretic peptide type C receptor B (NPR-B) positive cell line, NIH/3T3 and the negative cell line of HEK293 cells; endogenous in cells; host or cells: NIH/3T3
T1 sequence (Q6VVW5 17-1047): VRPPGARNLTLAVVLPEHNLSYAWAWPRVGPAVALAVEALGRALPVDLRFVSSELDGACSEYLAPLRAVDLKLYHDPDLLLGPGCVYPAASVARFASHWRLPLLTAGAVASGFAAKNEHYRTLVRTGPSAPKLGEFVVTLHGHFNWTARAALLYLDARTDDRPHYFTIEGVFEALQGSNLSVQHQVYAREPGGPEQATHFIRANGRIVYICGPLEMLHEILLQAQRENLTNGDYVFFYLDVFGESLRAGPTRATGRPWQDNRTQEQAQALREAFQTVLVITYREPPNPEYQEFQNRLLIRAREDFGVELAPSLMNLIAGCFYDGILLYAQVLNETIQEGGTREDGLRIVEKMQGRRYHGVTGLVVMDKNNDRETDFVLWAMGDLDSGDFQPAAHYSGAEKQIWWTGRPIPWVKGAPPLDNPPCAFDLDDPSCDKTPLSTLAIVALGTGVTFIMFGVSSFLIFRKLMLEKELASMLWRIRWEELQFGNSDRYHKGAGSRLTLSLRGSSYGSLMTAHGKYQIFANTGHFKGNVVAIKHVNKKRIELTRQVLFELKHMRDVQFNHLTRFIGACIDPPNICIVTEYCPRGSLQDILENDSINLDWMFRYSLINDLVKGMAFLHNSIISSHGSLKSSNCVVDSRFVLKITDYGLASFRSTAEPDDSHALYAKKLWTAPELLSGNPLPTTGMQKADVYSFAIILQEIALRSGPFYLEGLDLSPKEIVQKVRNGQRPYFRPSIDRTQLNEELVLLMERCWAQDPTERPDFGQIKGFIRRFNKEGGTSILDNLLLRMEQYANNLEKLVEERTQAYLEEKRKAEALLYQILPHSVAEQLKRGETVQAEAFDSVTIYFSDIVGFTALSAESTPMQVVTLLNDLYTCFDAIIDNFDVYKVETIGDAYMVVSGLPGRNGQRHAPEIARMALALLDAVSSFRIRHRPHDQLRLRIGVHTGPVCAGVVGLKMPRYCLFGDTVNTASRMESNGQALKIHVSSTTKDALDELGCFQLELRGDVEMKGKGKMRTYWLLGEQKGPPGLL
Assay: Stimulation of cGMP production in NPR-B positive cells (cGMP ELISA)
Type: cell-based
Details: FIG. 7A
Method: The biological function of these purified protein was assayed for their stimulation of production of cGMP, using NPR-B receptor positive cell line, NIH/3T3 and NPR-B negative cell line HEK293 cells. The determination of cGMP was assay by ELISA using commercial CNP as standard curves. […] Surface preparation. NBR-B was immobilized at different levels in three flow cells via standard amine coupling, leaving Fc 1 unmodified to serve as a reference. All surface plasmon resonance (SPR) analysis was performed on a BIAcore 3000 system using series CM5 sensor chips. Data processing and analysis were performed using BIAevaluation software. All sensorgrams were double referenced by subtracting the response on a reference flow cell and a blank sample. Human NPR-B (R&D system) was covalently attached to a CM5 chip via amine coupling. A surface density of 6600 RU was used for measurements with natriuretic peptides Sequential injections of CNP (0.5-8 nM) were performed at a flow rate of […] (300 s for each), followed by a dissociation time of 900 s. […] Kinetic parameters were calculated assuming a simple 1:1 (Langmuir) binding. […] Kinetic parameters were calculated assuming a simple 1:1 (Langmuir) binding. […] Kinetic parameters were calculated assuming a simple 1:1 (Langmuir) binding. […] Kinetic parameters were calculated assuming a simple 1:1 (Langmuir) binding. […]

Substance: AMI088: purified fusion protein Fc1-(G4S)4-CNP36 (IgG1 Fc), SEQ ID NO: 133
- cGMP production stimulated by AAV vector encoded CNP or CNP-Fc: highest level of cGMP
